Assay results: paper PMC3563642, “MERTK Interactions with SH2-Domain Proteins in the Retinal Pigment Epithelium” (PLoS ONE, 2013)

B1: HCK GST-SH2 domain fusion protein (domain or fragment, human, UniProt P08631 144-241, looked up)
chain: WFFKGISRKDAERQLLAPGNMLGSFMIRDSETTKGSYSLSVRDYDPRQGDTVKHYKIRTLDNGGFYISPRSTFSTLQELVDHYKKGNDGLCQKLSVPC
notes: pGEX2T construct from a library of SH2 domains; also called rSH2-domain fusion protein corresponding to HCK; source: E. coli BL21 DE3 Gold, purified (glutathione-agarose, Sephacryl S-200 HR)
B2: VAV3 GST-SH2 domain fusion protein (domain or fragment, human, UniProt Q9UKW4 672-766, looked up)
chain: WYAGAMERLQAETELINRVNSTYLVRHRTKESGEYAISIKYNNEAKHIKILTRDGFFHIAENRKFKSLMELVEYYKHHSLKEGFRTLDTTLQFPY
notes: pGEX2T construct from a library of SH2 domains; also called rSH2-domain fusion protein corresponding to VAV3; source: E. coli BL21 DE3 Gold, purified (glutathione-agarose, Sephacryl S-200 HR)
B3: VAV1 GST-SH2 domain fusion protein (domain or fragment, human, UniProt P15498 671-765, looked up)
chain: WYAGPMERAGAESILANRSDGTFLVRQRVKDAAEFAISIKYNVEVKHIKIMTAEGLYRITEKKAFRGLTELVEFYQQNSLKDCFKSLDTTLQFPF
notes: pGEX2T construct from a library of SH2 domains; also called rSH2-domain fusion protein corresponding to VAV1; source: E. coli BL21 DE3 Gold, purified (glutathione-agarose, Sephacryl S-200 HR)

target: T1, 6xHis-rMERTK(571–999), full-length human MERTK cytoplasmic domain (human, UniProt Q12866 571-999, autophosphorylated on tyrosine (incubated with ATP/MgCl2); sites Y749, Y753, Y754 were mapped on rMERTK571–864, not on this construct); assay: pull-down; Ni2+-NTA pull down: GST-rSH2-domain protein (10 µg) incubated with autophosphorylated 6xHis-rMERTK571–999 (10 µg) in 50 mM NaH2PO4, 300 mM NaCl, 10 mM imidazole, 0.1 µM PMSF, 1 h at 4°C, then Ni2+-NTA resin 0.5 h; washes with 50 mM imidazole, elution with 500 mM imidazole; Coomassie-stained SDS gels; negative control omits rMERTK; conditions: both partners purified
T1 construct: Expressed from the pET28a-LIC vector; also called MERTK intracellular domain; source: E. coli BL21 DE3 Gold, purified (Ni2+-NTA, Sephacryl S-200 HR), autophosphorylated with 10 mM ATP, 10 mM MgCl2
T1 sequence (looked up): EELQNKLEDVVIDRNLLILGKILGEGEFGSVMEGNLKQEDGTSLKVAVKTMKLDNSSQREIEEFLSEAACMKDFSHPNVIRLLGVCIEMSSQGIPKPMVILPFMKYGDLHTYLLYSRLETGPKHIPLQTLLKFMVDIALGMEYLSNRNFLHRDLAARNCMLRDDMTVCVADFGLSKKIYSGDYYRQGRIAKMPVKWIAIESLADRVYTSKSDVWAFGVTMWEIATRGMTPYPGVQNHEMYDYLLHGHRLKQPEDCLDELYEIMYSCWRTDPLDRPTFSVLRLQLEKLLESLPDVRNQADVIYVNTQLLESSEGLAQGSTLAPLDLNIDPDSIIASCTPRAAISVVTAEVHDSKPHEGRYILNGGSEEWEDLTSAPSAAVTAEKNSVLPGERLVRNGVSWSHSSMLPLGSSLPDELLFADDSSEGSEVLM

Binding result, binds:
B1
B2
B3
